The data set relates to NCI-H460 tumor-bearing mice (lung cancer). Description: Biodistribution: lutetium accumulation in tumor, plasma and healthy tissues by ICP-MS. The class given is in vivo. Conditions: 24 h; for Kidney uptake, % ID/g 24 h / Liver uptake, % ID/g 24 h / Plasma, % ID/g 24 h / Tumor uptake, % ID/g, 24 h: second table. As to the method:
Lutetium accumulation was measured in tumor, plasma and healthy tissues of NCI-H460 tumor-bearing mice (lung cancer). NCJ-H460 tumor bearing mice were dosed with 0.5 mg/kg of lutetium conjugates. At the time points indicated, mice were sacrificed and tumor, liver, kidneys and plasma were taken. All tissues were analyzed for lutetium content by ICP-MS, and lutetium uptake in % ID/g determined by the following equation: […]
Biodistribution at 24 h and Tumor/Kidney ratio (T/K), Tumor/Liver ratio (T/L), Tumor/Plasma ratio (T/P) are give in the table below.

Molecules are shown by their SMILES.

On to `CC(C)c1cc(-c2nnc(O)n2-c2ccc(OC3CCN(C(=O)CCOCCOCCOCCOCCNC(=O)CN4CCN5CCN6CCN(CC4)CC(=O)[O][Lu]([O]C(=O)C5)[O]C(=O)C6)CC3)cc2)c(O)cc1O` [CMP40], for which the “T/K (Tumor/Kidney ratio)” value is 5.08; the “T/L (Tumor/Liver ratio)” value is 62.28; the “T/P (Tumor/Plasma ratio)” value was 29.23; the “Kidney uptake, % ID/g 24 h” value turned out to be 0.14 % ID/g. Further, the “Liver uptake, % ID/g 24 h” value is on record as 0.01 % ID/g; the “Plasma, % ID/g 24 h” value is given as 0.02 % ID/g; the “Tumor uptake, % ID/g, 24 h” value is 0.71 % ID/g.
As to `CCNC(=O)c1nnc(-c2cc(C(C)C)c(O)cc2O)n1-c1ccc(CC2CCN(C(=O)CCOCCOCCOCCOCCOCCOCCOCCOCCOCCOCCOCCOCCNC(=O)[C@H](CCCCNC(=O)CCCc3ccc(I)cc3)NC(=O)CN3CCN4CCN5CCN(CC3)CC(=O)[O][Lu]([O]C(=O)C4)[O]C(=O)C5)CC2)cc1` [CMP3], the “T/K (Tumor/Kidney ratio)” value came out at 3.38; the “T/L (Tumor/Liver ratio)” value is on record as 2.39; the “T/P (Tumor/Plasma ratio)” value was 0.84; the “Kidney uptake, % ID/g 24 h” value came to 5.13 % ID/g. For the same compound, the “Liver uptake, % ID/g 24 h” value was determined as 7.26 % ID/g; the “Plasma, % ID/g 24 h” value turned out to be 20.57 % ID/g; the “Tumor uptake, % ID/g, 24 h” value amounted to 17.36 % ID/g.
Consider `CCNC(=O)c1nnc(-c2cc(C(C)C)c(O)cc2O)n1-c1ccc(CC2CCN(C(=O)C[C@H](NC(=O)CC[C@H](C(=O)O)N3CCN4CCN5CCN(CC3)CC(=O)[O][Lu]([O]C(=O)C5)[O]C(=O)C4)C(=O)N[C@H](C)C(=O)N3CCC(Cc4ccc(-n5c(C(=O)NCC)nnc5-c5cc(C(C)C)c(O)cc5O)cc4)CC3)CC2)cc1` [CMP28], for which the “T/K (Tumor/Kidney ratio)” value was determined as 0.90; the “T/L (Tumor/Liver ratio)” value was 0.79; the “T/P (Tumor/Plasma ratio)” value was found to be 1.13; the “Kidney uptake, % ID/g 24 h” value is 8.90 % ID/g. Besides, the “Liver uptake, % ID/g 24 h” value is listed as 10.10 % ID/g; the “Plasma, % ID/g 24 h” value was 7.11 % ID/g; the “Tumor uptake, % ID/g, 24 h” value is 8.01 % ID/g.
As to `CCNC(=O)c1nnc(-c2cc(C(C)C)c(O)cc2O)n1-c1ccc(CC2CCN(C(=O)CCOCC(COCCC(=O)N3CCC(Cc4ccc(-n5c(C(=O)NCC)nnc5-c5cc(C(C)C)c(O)cc5O)cc4)CC3)NC(=O)CC[C@H](C(=O)O)N3CCN4CCN5CCN(CC3)CC(=O)[O][Lu]([O]C(=O)C5)[O]C(=O)C4)CC2)cc1` [CMP8], the “T/K (Tumor/Kidney ratio)” value was 2.01; the “T/L (Tumor/Liver ratio)” value was 1.67; the “T/P (Tumor/Plasma ratio)” value was 4.01; the “Kidney uptake, % ID/g 24 h” value was found to be 2.91 % ID/g. Further, the “Liver uptake, % ID/g 24 h” value was 3.50 % ID/g; the “Plasma, % ID/g 24 h” value worked out at 1.46 % ID/g; the “Tumor uptake, % ID/g, 24 h” value is given as 5.86 % ID/g.
Turning to `CCNC(=O)c1nnc(-c2cc(C(C)C)c(O)cc2O)n1-c1ccc(OC2CCN(C(=O)CCOCCOCCOCCOCCOCCOCCOCCOCCOCCOCCOCCOCCNC(=O)[C@H](CCCCNC(=O)CCCc3ccc(I)cc3)NC(=O)CN3CCN4CCN5CCN(CC3)CC(=O)[O][Lu]([O]C(=O)C4)[O]C(=O)C5)CC2)cc1` [CMP5], the “T/K (Tumor/Kidney ratio)” value was 3.05; the “T/L (Tumor/Liver ratio)” value turned out to be 3.17; the “T/P (Tumor/Plasma ratio)” value is listed as 1.42; the “Kidney uptake, % ID/g 24 h” value is given as 3.95 % ID/g. Besides, the “Liver uptake, % ID/g 24 h” value is recorded as 3.80 % ID/g; the “Plasma, % ID/g 24 h” value is 8.48 % ID/g; the “Tumor uptake, % ID/g, 24 h” value stood at 12.05 % ID/g.
As for `CCNC(=O)c1nnc(-c2cc(C(C)C)c(O)cc2O)n1-c1ccc(OC2CCN(C(=O)CCOCCOCCOCCOCCNC(=O)CC[C@@H](C(=O)O)N(CC)CCN3CCN4CCN(C)CC(=O)[O][Lu]([O]C(=O)C4)[O]C(=O)C3)CC2)cc1` [CMP2], the “T/K (Tumor/Kidney ratio)” value stood at 2.12; the “T/L (Tumor/Liver ratio)” value stood at 1.98; the “T/P (Tumor/Plasma ratio)” value was determined as 2.51; the “Kidney uptake, % ID/g 24 h” value was determined as 0.438 % ID/g. Besides, the “Liver uptake, % ID/g 24 h” value was found to be 0.469 % ID/g; the “Plasma, % ID/g 24 h” value is listed as 0.369 % ID/g; the “Tumor uptake, % ID/g, 24 h” value was determined as 0.927 % ID/g.
